Test results from US11219221B2 (FarmHannong Co., Ltd., priority 2017, dated 2022).

B1: A162L + V305M + F360M (protein)
chain: MLDSLIVGAGISGLSAAHTLQKQQTQFLVTESQGRVGGNITTNRQGDYLWEEGPNSFAPTEDLLRLAVEVGLKEDLVFADRRLPRFVYWNQQLHPVPMSPPAALKTQLLSEAGKWRAALGALGFVGGLVGREEETVRQFFTRHLGTEVTERLVAPFVSGVYLGDVDQLSAQAAFRRVFEFAQLGGGLAAGGILARRQAPPKAPPDPSLPETKTGQLGSFREGLEMLPRAIASQLGDRLKLQWRLTHLEITPQQTYLAHFNTPDGPQQIATRTLILTTPAPITADLLKPLTPALHGVLKEIYYPPMACVVLAYPRAASARPLEGFGHLIPRNQGIRTLGTIWSSCLFPGRTPEGEHLLTNMIGGATDPGIAQLDPEEIAQAVHQDLCKILIRPEFTPKILAVRLWKQAIPQYTLGHLQRLATLEQELSKFPGLHILANYTDGVALGDCVKRGVAVAQKIRSRE
modifications: Synthetic (Protoporphyrinogen IX oxidase (CyPPO16) of Spirulina subsalsa)
B2: A162C + V305M + L327T + F360M (protein)
chain: MLDSLIVGAGISGLSAAHTLQKQQTQFLVTESQGRVGGNITTNRQGDYLWEEGPNSFAPTEDLLRLAVEVGLKEDLVFADRRLPRFVYWNQQLHPVPMSPPAALKTQLLSEAGKWRAALGALGFVGGLVGREEETVRQFFTRHLGTEVTERLVAPFVSGVYCGDVDQLSAQAAFRRVFEFAQLGGGLAAGGILARRQAPPKAPPDPSLPETKTGQLGSFREGLEMLPRAIASQLGDRLKLQWRLTHLEITPQQTYLAHFNTPDGPQQIATRTLILTTPAPITADLLKPLTPALHGVLKEIYYPPMACVVLAYPRAASARPLEGFGHTIPRNQGIRTLGTIWSSCLFPGRTPEGEHLLTNMIGGATDPGIAQLDPEEIAQAVHQDLCKILIRPEFTPKILAVRLWKQAIPQYTLGHLQRLATLEQELSKFPGLHILANYTDGVALGDCVKRGVAVAQKIRSRE
modifications: Synthetic (Protoporphyrinogen IX oxidase (CyPPO16) of Spirulina subsalsa)
B3: V305M + L327T + F360M (protein)
chain: MLDSLIVGAGISGLSAAHTLQKQQTQFLVTESQGRVGGNITTNRQGDYLWEEGPNSFAPTEDLLRLAVEVGLKEDLVFADRRLPRFVYWNQQLHPVPMSPPAALKTQLLSEAGKWRAALGALGFVGGLVGREEETVRQFFTRHLGTEVTERLVAPFVSGVYAGDVDQLSAQAAFRRVFEFAQLGGGLAAGGILARRQAPPKAPPDPSLPETKTGQLGSFREGLEMLPRAIASQLGDRLKLQWRLTHLEITPQQTYLAHFNTPDGPQQIATRTLILTTPAPITADLLKPLTPALHGVLKEIYYPPMACVVLAYPRAASARPLEGFGHTIPRNQGIRTLGTIWSSCLFPGRTPEGEHLLTNMIGGATDPGIAQLDPEEIAQAVHQDLCKILIRPEFTPKILAVRLWKQAIPQYTLGHLQRLATLEQELSKFPGLHILANYTDGVALGDCVKRGVAVAQKIRSRE
modifications: Synthetic (Protoporphyrinogen IX oxidase (CyPPO16) of Spirulina subsalsa)
B4: R88A + V164C + A166L + L326T + F359M: CyPPO17 variant (protein)
chain: MEVDVAIVGGGLSGLSVAWRLQQSAPQYSGVLLEASDRLGGNITTQGAEGFVWELGPNSFAPTPALLQLIAEVGLHSELIRGDRHLPAYIYWRGELYPLEPTRPLALATSNLLSPWGKVRAALGALGFVPPYLGSGDESVNSFFRRHLGQEVAERLVAPFVSGCYLGDPQQLSAAAAFRRIAQLEKLGGGLIAGALRLRRQQPPKPRPPAEVQMRPGELGSFKEGLAALPRAIAQQLKAPVHLQTPVEAITPEPNGGYLLRSGEQTWQARSVVLATPAYQTAALVAPFQPAIARVLAAIPYPTVACVVLAYPAGLGRSVRPGFGVTIPRGQGIRTLGTIWSSCLFPQRTPAGWQVFTSMIGGATDPDLASLREEAIVQQVQQDLTRLLDLPAAKARLLGMKVWRRAIPQYLVGYPQQWQQVTHALSQTPGLFLCSNYAEGVALGDRVEHGNRTAAAVAAYLSGGQS
modifications: Synthetic (Protoporphyrinogen IX oxidase (CyPPO17) of Thermosynechococcus sp. NK55a)
notes: CyPPO17 variant
B5: V164C + A166L + V304M + L326T + F359M: CyPPO17 variant (protein)
chain: MEVDVAIVGGGLSGLSVAWRLQQSAPQYSGVLLEASDRLGGNITTQGAEGFVWELGPNSFAPTPALLQLIAEVGLHSELIRGDRHLPRYIYWRGELYPLEPTRPLALATSNLLSPWGKVRAALGALGFVPPYLGSGDESVNSFFRRHLGQEVAERLVAPFVSGCYLGDPQQLSAAAAFRRIAQLEKLGGGLIAGALRLRRQQPPKPRPPAEVQMRPGELGSFKEGLAALPRAIAQQLKAPVHLQTPVEAITPEPNGGYLLRSGEQTWQARSVVLATPAYQTAALVAPFQPAIARVLAAIPYPTMACVVLAYPAGLGRSVRPGFGVTIPRGQGIRTLGTIWSSCLFPQRTPAGWQVFTSMIGGATDPDLASLREEAIVQQVQQDLTRLLDLPAAKARLLGMKVWRRAIPQYLVGYPQQWQQVTHALSQTPGLFLCSNYAEGVALGDRVEHGNRTAAAVAAYLSGGQS
modifications: Synthetic (Protoporphyrinogen IX oxidase (CyPPO17) of Thermosynechococcus sp. NK55a)
notes: CyPPO17 variant
B6: R88A + V164C + A166C + V304M + L326T + F359M: CyPPO17 variant (protein)
chain: MEVDVAIVGGGLSGLSVAWRLQQSAPQYSGVLLEASDRLGGNITTQGAEGFVWELGPNSFAPTPALLQLIAEVGLHSELIRGDRHLPAYIYWRGELYPLEPTRPLALATSNLLSPWGKVRAALGALGFVPPYLGSGDESVNSFFRRHLGQEVAERLVAPFVSGCYCGDPQQLSAAAAFRRIAQLEKLGGGLIAGALRLRRQQPPKPRPPAEVQMRPGELGSFKEGLAALPRAIAQQLKAPVHLQTPVEAITPEPNGGYLLRSGEQTWQARSVVLATPAYQTAALVAPFQPAIARVLAAIPYPTMACVVLAYPAGLGRSVRPGFGVTIPRGQGIRTLGTIWSSCLFPQRTPAGWQVFTSMIGGATDPDLASLREEAIVQQVQQDLTRLLDLPAAKARLLGMKVWRRAIPQYLVGYPQQWQQVTHALSQTPGLFLCSNYAEGVALGDRVEHGNRTAAAVAAYLSGGQS
modifications: Synthetic (Protoporphyrinogen IX oxidase (CyPPO17) of Thermosynechococcus sp. NK55a)
notes: CyPPO17 variant

Legend:
[1] = tested on: CyPPO16; assay: Herbicide tolerance test of CyPPO16 wild type and variants in PPO-deficient E. coli BT3(ΔPPO); format: cell-based, Spirulina subsalsa; conditions: BT3(ΔPPO) transformants, two or more amino acid mutations, dark; for Herbicide tolerance, tiafenacil: 37° C., 16 to 20 hours, relative to wild type at highest concentration (50, 200 μM); for Herbicide tolerance, flumioxazin: relative to wild type at highest concentration (25, 50 μM); for Herbicide tolerance, sulfentrazone: relative to wild type at highest concentration (2000, 4000 μM)
Procedure: (§1) The mutated CyPPO gene obtained from the Example 2 was transformed to BT3 (ΔPPO) strain which is deficient of PPO activity and cultured in LB media with PPO-inhibiting herbicide, thereby examining whether growth of transformed BT3 was not inhibited.
(§2) BT3 competent cells were transformed with the pET303-CyPPO16 and pET303-CyPPO17 plasmids and those with a mutation(s) constructed in Example 2 respectively, and were cultured in LB agar media containing carbenicillin (Gold Biotechnology, Co., Ltd.).
(§3) Single colony of E. coli transformed with each CyPPO gene was cultured in 3 ml of LB broth containing carbenicillin overnight, and then was subcultured until absorbance (0D600) reached 0.5 to 1. Then, it was diluted with LB broth to OD600=0.5. Again, the diluted solution was serially diluted 4 times by a factor of one tenth.
(§4) The LB agar media (LB 25 g/l, Bacto agar 15 g/l) containing carbenicillin (100 μg/ml) and 0 to 4,000 μM of various herbicides dissolved in DMSO was prepared. Next, 10 μl of each diluted solution was dropped on the plate and cultured at 37° C. under light (Tables 7 and 9, FIGS. 2 to 6, and 18 to 22) or dark (Tables 8 and 10, FIGS. 7 to 17, and 23 to 33) for 16 to 20 hours. Then, extent of tolerance was evaluated.
(§5) The extent of herbicide tolerance of the mutated genes was evaluated by comparing that of mutated genes with that of wild type. The relative tolerance was represented with “+” as a factor of 10 times. Evaluation result was listed in Tables 7 to10 and FIGS. 2 to 33:
(§6) In Tables 7 to 10, tolerance level was presented as of tolerance of wild type and of variants equivalent to that of wild type, and was done as ‘+’ per each 10 fold resistance until ‘+++++’ as maximal resistance. (Tolerance level was evaluated by relative growth level of variants to that of wild type in the media containing highest concentration of herbicide; ‘+’=1-9 fold higher tolerance, ‘++’=10-99 fold higher tolerance, ‘+++’=100-999 fold higher tolerance, ‘++++’=1,000-9,999 fold higher tolerance, ‘+++++’=more than 10,000 fold higher tolerance)
(§7) The concentrations of herbicides were written above the photographs of tolerance test. A dilution series (0D600=0.5, 0.05, 0.005, 0.0005, 0.00005) was made and spotted on LB agar plates supplemented with herbicides.

[2] = tested on: CyPPO17; assay: Herbicide tolerance test of CyPPO17 wild type and variants in PPO-deficient E. coli BT3(ΔPPO); format: cell-based, Thermosynechococcus sp. NK55a; conditions: BT3(ΔPPO) transformants, two or more amino acid mutations, dark; for Herbicide tolerance, tiafenacil: 37° C., 16 to 20 hours, relative to wild type at highest concentration (50, 200 μM); for Herbicide tolerance, flumioxazin: relative to wild type at highest concentration (100, 200 μM); for Herbicide tolerance, sulfentrazone: relative to wild type at highest concentration (200, 400 μM)
Procedure: as §1, §2, §3, §4, §5, §6, §7

Molecule | Herbicide tolerance, tiafenacil [1] | Herbicide tolerance, flumioxazin [1] | Herbicide tolerance, sulfentrazone [1] | Herbicide tolerance, tiafenacil [2] | Herbicide tolerance, flumioxazin [2] | Herbicide tolerance, sulfentrazone [2]
B1 | +++++ (‘+++++’=more than 10,000 fold higher tolerance) | +++++ (‘+++++’=more than 10,000 fold higher tolerance) | ++++ (‘++++’=1,000-9,999 fold higher tolerance) | – | – | –
B2 | +++++ (‘+++++’=more than 10,000 fold higher tolerance) | +++++ (‘+++++’=more than 10,000 fold higher tolerance) | ++++ (‘++++’=1,000-9,999 fold higher tolerance) | – | – | –
B3 | +++++ (‘+++++’=more than 10,000 fold higher tolerance) | +++++ (‘+++++’=more than 10,000 fold higher tolerance) | ++++ (‘++++’=1,000-9,999 fold higher tolerance) | – | – | –
B4 | – | – | – | +++++ (‘+++++’=more than 10,000 fold higher tolerance) | +++++ (‘+++++’=more than 10,000 fold higher tolerance) | ++++ (‘++++’=1,000-9,999 fold higher tolerance)
B5 | – | – | – | +++++ (‘+++++’=more than 10,000 fold higher tolerance) | +++++ (‘+++++’=more than 10,000 fold higher tolerance) | ++++ (‘++++’=1,000-9,999 fold higher tolerance)
B6 | – | – | – | +++++ (‘+++++’=more than 10,000 fold higher tolerance) | +++++ (‘+++++’=more than 10,000 fold higher tolerance) | ++++ (‘++++’=1,000-9,999 fold higher tolerance)
